T1: FcγRIIb extracellular domain with C-terminal His tag (human, UniProt P31994 43-217)
T1 construct: extracellular domain; expressed in FreeStyle293 cells; analyte in Biacore; also called FcgRIIb; 2b
T1 sequence (looked up): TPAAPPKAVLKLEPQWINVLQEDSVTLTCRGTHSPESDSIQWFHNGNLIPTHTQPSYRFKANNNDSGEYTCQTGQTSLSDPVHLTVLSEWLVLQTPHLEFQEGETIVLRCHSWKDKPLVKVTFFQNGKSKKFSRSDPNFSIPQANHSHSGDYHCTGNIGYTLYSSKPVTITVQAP

B1: GpH7-A5/GpH7-B3 variant Q295_16H/GpL16-k0 (antibody, human IgG1, kappa)
heavy 1: not shown
heavy 2: not shown
light: DIVMTQSPLSLPVTPGEPASISCQASESLVHSNRNTYLHWYLQKPGQSPQLLIYKVSNRFSGVPDRFSGSGSGTDFTLKISRVEAEDVGVYYCSQNTHVPPTFGQGTKVEIERTVAAPSVFIFPPSDEQLKSGTASVVCLLNNFYPREAKVQWKVDNALQSGNSQESVTEQDSKDSTYSLSSTLTLSKADYEKHKVYACEVTHQGLSSPVTKSFNRGEC
notes: He Ab; IgG1, mutation in one H chain
B2: GpH7-A5/GpH7-B3 variant Y300_07I/GpL16-k0 (antibody, human IgG1, kappa)
heavy 1: not shown
heavy 2: not shown
light: B1 light
notes: as for B1
B3: GpH7-A5/GpH7-B3 variant Y300_09D/GpL16-k0 (antibody, human IgG1, kappa)
heavy 1: not shown
heavy 2: not shown
light: B1 light
notes: as for B1
B4: GpH7-A5/GpH7-B3 variant Y300_14T/GpL16-k0 (antibody, human IgG1, kappa)
heavy 1: not shown
heavy 2: not shown
light: B1 light
notes: as for B1
B5: GpH7-A5/GpH7-B3 variant S298_16H/GpL16-k0 (antibody, human IgG1, kappa)
heavy 1: not shown
heavy 2: not shown
light: B1 light
notes: as for B1
B6: GpH7-A5/GpH7-B3 variant S324_07I/GpL16-k0 (antibody, human IgG1, kappa)
heavy 1: not shown
heavy 2: not shown
light: B1 light
notes: as for B1
B7: GpH7-A5/GpH7-B3 variant Y296_18N/GpL16-k0 (antibody, human IgG1, kappa)
heavy 1: not shown
heavy 2: not shown
light: B1 light
notes: as for B1
B8: GpH7-A5/GpH7-B3 variant Y296_13S/GpL16-k0 (antibody, human IgG1, kappa)
heavy 1: not shown
heavy 2: not shown
light: B1 light
notes: as for B1
B9: GpH7-A5/GpH7-B3 variant Y300_08L/GpL16-k0 (antibody, human IgG1, kappa)
heavy 1: not shown
heavy 2: not shown
light: B1 light
notes: as for B1
B10: GpH7-A5/GpH7-B3 variant Q295_18N/GpL16-k0 (antibody, human IgG1, kappa)
heavy 1: not shown
heavy 2: not shown
light: B1 light
notes: as for B1
B11: GpH7-A5/GpH7-B3 variant Y300_20W/GpL16-k0 (antibody, human IgG1, kappa)
heavy 1: not shown
heavy 2: not shown
light: B1 light
notes: as for B1
B12: GpH7-A5/GpH7-B3 variant S298_03V/GpL16-k0 (antibody, human IgG1, kappa)
heavy 1: not shown
heavy 2: not shown
light: B1 light
notes: as for B1
B13: GpH7-A5/GpH7-B3 variant Y300_06M/GpL16-k0 (antibody, human IgG1, kappa)
heavy 1: not shown
heavy 2: not shown
light: B1 light
notes: as for B1
B14: GpH7-A5/GpH7-B3 variant Y300_01G/GpL16-k0 (antibody, human IgG1, kappa)
heavy 1: not shown
heavy 2: not shown
light: B1 light
notes: as for B1
B15: GpH7-A5/GpH7-B3 variant Y300_12R/GpL16-k0 (antibody, human IgG1, kappa)
heavy 1: not shown
heavy 2: not shown
light: B1 light
notes: as for B1
B16: GpH7-A5/GpH7-B3 variant S298_11K/GpL16-k0 (antibody, human IgG1, kappa)
heavy 1: not shown
heavy 2: not shown
light: B1 light
notes: as for B1
B17: GpH7-A5/GpH7-B3 variant S298_12R/GpL16-k0 (antibody, human IgG1, kappa)
heavy 1: not shown
heavy 2: not shown
light: B1 light
notes: as for B1
B18: GpH7-A5/GpH7-B3 variant S298_14T/GpL16-k0 (antibody, human IgG1, kappa)
heavy 1: not shown
heavy 2: not shown
light: B1 light
notes: as for B1
B19: GpH7-A5/GpH7-B3 variant Y296_07I/GpL16-k0 (antibody, human IgG1, kappa)
heavy 1: not shown
heavy 2: not shown
light: B1 light
notes: as for B1
B20: GpH7-A5/GpH7-B3 variant Y296_01G/GpL16-k0 (antibody, human IgG1, kappa)
heavy 1: not shown
heavy 2: not shown
light: B1 light
notes: as for B1
B21: GpH7-A5/GpH7-B3 variant Y296_09D/GpL16-k0 (antibody, human IgG1, kappa)
heavy 1: not shown
heavy 2: not shown
light: B1 light
notes: as for B1
B22: GpH7-A5/GpH7-B3 variant Y296_16H/GpL16-k0 (antibody, human IgG1, kappa)
heavy 1: not shown
heavy 2: not shown
light: B1 light
notes: as for B1
B23: GpH7-A5/GpH7-B3 variant S298_18N/GpL16-k0 (antibody, human IgG1, kappa)
heavy 1: not shown
heavy 2: not shown
light: B1 light
notes: as for B1
B24: GpH7-A5/GpH7-B3 variant S324_03V/GpL16-k0 (antibody, human IgG1, kappa)
heavy 1: not shown
heavy 2: not shown
light: B1 light
notes: as for B1

The binders below were run against T2, FcγRIa extracellular domain with C-terminal His tag (human, UniProt P12314 16-292) (assay: SPR (Biacore), captured antibody, FcγR as analyte; relative binding).
T2 construct: extracellular domain; expressed in FreeStyle293 cells; analyte in Biacore; also called FcgRI; 1a
T2 sequence (P12314 16-292): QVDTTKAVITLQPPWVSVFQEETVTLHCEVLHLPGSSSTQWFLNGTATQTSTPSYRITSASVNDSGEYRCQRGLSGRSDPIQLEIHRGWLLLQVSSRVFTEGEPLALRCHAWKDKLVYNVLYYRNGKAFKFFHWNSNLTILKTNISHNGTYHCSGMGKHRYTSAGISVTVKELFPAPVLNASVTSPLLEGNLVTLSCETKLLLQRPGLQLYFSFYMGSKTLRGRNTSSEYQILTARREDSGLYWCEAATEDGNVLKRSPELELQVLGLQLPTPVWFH

He/Con_1a	Binder
102 % of HeCon Ab (GpH7-A5/GpH7-B3/GpL16-k0 = 100)	B1
108 % of HeCon Ab (GpH7-A5/GpH7-B3/GpL16-k0 = 100)	B2
112 % of HeCon Ab (GpH7-A5/GpH7-B3/GpL16-k0 = 100)	B3
112 % of HeCon Ab (GpH7-A5/GpH7-B3/GpL16-k0 = 100)	B4
109 % of HeCon Ab (GpH7-A5/GpH7-B3/GpL16-k0 = 100)	B5
102 % of HeCon Ab (GpH7-A5/GpH7-B3/GpL16-k0 = 100)	B6
106 % of HeCon Ab (GpH7-A5/GpH7-B3/GpL16-k0 = 100)	B7
105 % of HeCon Ab (GpH7-A5/GpH7-B3/GpL16-k0 = 100)	B8
113 % of HeCon Ab (GpH7-A5/GpH7-B3/GpL16-k0 = 100)	B9
102 % of HeCon Ab (GpH7-A5/GpH7-B3/GpL16-k0 = 100)	B10
112 % of HeCon Ab (GpH7-A5/GpH7-B3/GpL16-k0 = 100)	B11
110 % of HeCon Ab (GpH7-A5/GpH7-B3/GpL16-k0 = 100)	B12
112 % of HeCon Ab (GpH7-A5/GpH7-B3/GpL16-k0 = 100)	B13
116 % of HeCon Ab (GpH7-A5/GpH7-B3/GpL16-k0 = 100)	B14
105 % of HeCon Ab (GpH7-A5/GpH7-B3/GpL16-k0 = 100)	B15
109 % of HeCon Ab (GpH7-A5/GpH7-B3/GpL16-k0 = 100)	B16
109 % of HeCon Ab (GpH7-A5/GpH7-B3/GpL16-k0 = 100)	B17
107 % of HeCon Ab (GpH7-A5/GpH7-B3/GpL16-k0 = 100)	B18
104 % of HeCon Ab (GpH7-A5/GpH7-B3/GpL16-k0 = 100)	B19
103 % of HeCon Ab (GpH7-A5/GpH7-B3/GpL16-k0 = 100)	B20
106 % of HeCon Ab (GpH7-A5/GpH7-B3/GpL16-k0 = 100)	B21
106 % of HeCon Ab (GpH7-A5/GpH7-B3/GpL16-k0 = 100)	B22
108 % of HeCon Ab (GpH7-A5/GpH7-B3/GpL16-k0 = 100)	B23
104 % of HeCon Ab (GpH7-A5/GpH7-B3/GpL16-k0 = 100)	B24

The binders below were run against T1, FcγRIIb extracellular domain with … in the same assay as above.

He/Con_2b	Binder
62.7 % of HeCon Ab (GpH7-A5/GpH7-B3/GpL16-k0 = 100)	B1
74.5 % of HeCon Ab (GpH7-A5/GpH7-B3/GpL16-k0 = 100)	B2
93.2 % of HeCon Ab (GpH7-A5/GpH7-B3/GpL16-k0 = 100)	B3
55.6 % of HeCon Ab (GpH7-A5/GpH7-B3/GpL16-k0 = 100)	B4
63.5 % of HeCon Ab (GpH7-A5/GpH7-B3/GpL16-k0 = 100)	B5
95.7 % of HeCon Ab (GpH7-A5/GpH7-B3/GpL16-k0 = 100)	B6
91.5 % of HeCon Ab (GpH7-A5/GpH7-B3/GpL16-k0 = 100)	B7
86.3 % of HeCon Ab (GpH7-A5/GpH7-B3/GpL16-k0 = 100)	B8
73.6 % of HeCon Ab (GpH7-A5/GpH7-B3/GpL16-k0 = 100)	B9
64.9 % of HeCon Ab (GpH7-A5/GpH7-B3/GpL16-k0 = 100)	B10
84.1 % of HeCon Ab (GpH7-A5/GpH7-B3/GpL16-k0 = 100)	B11
64.5 % of HeCon Ab (GpH7-A5/GpH7-B3/GpL16-k0 = 100)	B12
84.3 % of HeCon Ab (GpH7-A5/GpH7-B3/GpL16-k0 = 100)	B13
48.4 % of HeCon Ab (GpH7-A5/GpH7-B3/GpL16-k0 = 100)	B14
41.2 % of HeCon Ab (GpH7-A5/GpH7-B3/GpL16-k0 = 100)	B15
61.3 % of HeCon Ab (GpH7-A5/GpH7-B3/GpL16-k0 = 100)	B16
57.8 % of HeCon Ab (GpH7-A5/GpH7-B3/GpL16-k0 = 100)	B17
77.9 % of HeCon Ab (GpH7-A5/GpH7-B3/GpL16-k0 = 100)	B18
84.3 % of HeCon Ab (GpH7-A5/GpH7-B3/GpL16-k0 = 100)	B19
79.3 % of HeCon Ab (GpH7-A5/GpH7-B3/GpL16-k0 = 100)	B20
98.9 % of HeCon Ab (GpH7-A5/GpH7-B3/GpL16-k0 = 100)	B21
92.2 % of HeCon Ab (GpH7-A5/GpH7-B3/GpL16-k0 = 100)	B22
48.1 % of HeCon Ab (GpH7-A5/GpH7-B3/GpL16-k0 = 100)	B23
97.8 % of HeCon Ab (GpH7-A5/GpH7-B3/GpL16-k0 = 100)	B24

Reference: patent US20150344570A1 (published 2015)
